According to patent US20170189519A1 (Janssen / Centocor, published 2017):

Legend:
189E10 [1] = target: T1, 189E10 (influenza A H1N1 A/Brisbane/59/2007); test: ELISA, coated CR6261, P. pastoris medium
146G7 [2] = target: T2, 146G7 (influenza A H1N1 A/Brisbane/59/2007); test: ELISA, coated CR6261, P. pastoris medium
262B9 [3] = target: T3, 262B9 (influenza A H1N1 A/Brisbane/59/2007); test: ELISA, coated CR6261, P. pastoris medium
189E10 [4] = target: T1, 189E10; test: ratio against parental SEQ ID NO: 6
146G7 [5] = target: T2, 146G7; test: ratio against parental SEQ ID NO: 6
262B9 [6] = target: T3, 262B9; test: ratio against parental SEQ ID NO: 6
189E10 [7] = target: T1, 189E10; test: ELISA signal over HTRF expression signal
146G7 [8] = target: T2, 146G7; test: ELISA signal over HTRF expression signal
262B9 [9] = target: T3, 262B9; test: ELISA signal over HTRF expression signal
s127H1-t2-cl18long = s127H1-t2-cl18long (influenza A virus H1N1 …, UniProt A8C8J4 18-529)

B1: CR6261 (antibody, V domains shown)
VH: EVQLVESGAEVKKPGSSVKVSCKASGGPFRSYAISWVRQAPGQGPEWMGGIIPIFGTTKYAPKFQGRVTITADDFAGTVYMELSSLRSEDTAMYYCAKHMGYQVRETMDVWGKGTTVTVSS
VL: QSVLTQPPSVSAAPGQKVTISCSGSSSNIGNDYVSWYQQLPGTAPKLLIYDNNKRPSGIPDRFSGSKSGTSATLGITGLQTGDEANYYCATWDRRPTAYVVFGGGTKLTVLG
- CR6261 binding signal (189E10 [1]): 189000
- CR6261 binding signal (146G7 [2]): 534000
- CR6261 binding signal (262B9 [3]): 94700
- fold increase of ratio over parental H1 mini-HA (189E10 [4]): 1.74
- fold increase of ratio over parental H1 mini-HA (146G7 [5]): 1.71
- fold increase of ratio over parental H1 mini-HA (262B9 [6]): 1.66
- ratio of CR6261 binding signal to HTRF signal (189E10 [7]): 10.3
- ratio of CR6261 binding signal to HTRF signal (146G7 [8]): 10.2
- ratio of CR6261 binding signal to HTRF signal (262B9 [9]): 9.89

B2: CR6261 (antibody, V domains shown)
VH: EVQLVESGAEVKKPGSSVKVSCKASGGPFRSYAISWVRQAPGQGPEWMGGIIPIFGTTKYAPKFQGRVTITADDFAGTVYMELSSLRSEDTAMYYCAKHMGYQVRETMDVWGKGTTVTVSS
VL: QSVLTQPPSVSAAPGQKVTISCSGSSSNIGNDYVSWYQQLPGTAPKLLIYDNNKRPSGIPDRFSGSKSGTSATLGITGLQTGDEANYYCATWDRRPTAYVVFGGGTKLTVLG
- EC50 (s127H1-t2-cl18long): 0.139 µg/mL
